Values belong to the binder of their own block, whether it stands above or below them.
Columns and labels:
[1] = molecular target: T1, human gp130-his (human, UniProt P40189 23-619); assay: ELISA; receptor competitive ELISA: wells coated with LIFR-his or gp130-his (100 ng/well); hLIF-hFc (50 ng) pre-mixed with recombinant antibody at 4 C for 1 h, then 37 C for 1 h on the plate; detected with HRP goat anti-human IgG; conditions: both partners purified
T1 construct: gp130 (interleukin-6 receptor subunit beta), human; source: bought: Sino Biological
T1 sequence (looked up): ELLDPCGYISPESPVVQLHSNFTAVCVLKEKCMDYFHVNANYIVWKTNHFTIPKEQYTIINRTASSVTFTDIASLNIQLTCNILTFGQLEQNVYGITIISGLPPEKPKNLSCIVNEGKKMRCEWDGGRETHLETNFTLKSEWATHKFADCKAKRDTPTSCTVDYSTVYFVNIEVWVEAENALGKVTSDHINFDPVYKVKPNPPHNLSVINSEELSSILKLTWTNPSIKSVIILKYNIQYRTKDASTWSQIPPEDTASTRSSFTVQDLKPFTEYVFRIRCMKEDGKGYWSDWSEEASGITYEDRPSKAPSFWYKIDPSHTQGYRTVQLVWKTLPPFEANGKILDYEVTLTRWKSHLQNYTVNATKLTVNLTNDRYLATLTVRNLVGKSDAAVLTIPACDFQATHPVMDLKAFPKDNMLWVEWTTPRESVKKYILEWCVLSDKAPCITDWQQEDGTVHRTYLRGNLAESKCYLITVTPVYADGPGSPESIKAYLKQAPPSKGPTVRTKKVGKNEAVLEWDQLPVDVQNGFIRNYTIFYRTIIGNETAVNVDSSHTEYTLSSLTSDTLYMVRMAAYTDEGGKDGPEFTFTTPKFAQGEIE

[2] = molecular target: T1, human gp130-his; assay: SPR; Biacore 8K, CM5 chip with anti-mouse IgG, 1G11 captured; 200 nM hLIF flowed, followed by 500 nM LIFR-his or gp130-his; 25 C, pH 7.4, 10 mM HEPES, 150 mM NaCl, 3 mM EDTA, 0.05% Tween-20; conditions: both partners purified

binding result [1]: binds
B1: human LIF with human IgG1-Fc tag (Fc fusion)
chain: not shown
notes: also called hLIF-hFc; LIF-hFc

binding result [2]: binds
B2: human LIF (ligand)
chain: not shown
notes: also called hLIF; source: bought: Genscript

— PMC11340043, “Antagonist anti-LIF antibody derived from naive human scFv phage library inhibited tumor growth in mice” (BMC Immunology, 2024)
